Data taken from the supplement of paper PMC10567573.

B1: MIA2 (parent)
chain: SVIEPVQESSFRSRKIAVEDENDL

Variants of: B1
Assay: protein stability index of a GFP-peptide fusion (GPS, HEK-293T) (PSI 1-6); higher = more stable
Settings: c terminus: a fixed tail appended
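Note: lentivirally expressed fusions sorted by FACS into six bins by GFP to DsRed ratio, PSI derived from sequencing read proportions per bin multiplied by bin number.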

Row | Variant | protein stability index
1 | SVIEPVQESYFRSRKIAVEDENDL [S10Y] | 4.81
2 | SVIEPVQESDFRSRKIAVEDENDL [S10D] | 5.54
3 | SVIEPVQESPFRSRKIAVEDENDL [S10P] | 5.02
4 | SVIEPVQESEFRSRKIAVEDENDL [S10E] | 5.27
5 | SVIEPVQESGFRSRKIAVEDENDL [S10G] | 5.78
6 | SVIEPVQESVFRSRKIAVEDENDL [S10V] | 5.28
7 | SVIEPVQESTFRSRKIAVEDENDL [S10T] | 4.48
8 | SVIEPVQESAFRSRKIAVEDENDL [S10A] | 5.49
9 | SVIEPVQESWFRSRKIAVEDENDL [S10W] | 4.72
10 | SVIEPVQESLFRSRKIAVEDENDL [S10L] | 4.72
11 | SVIEPVQESKFRSRKIAVEDENDL [S10K] | 5.54
12 | SVIEPVQESQFRSRKIAVEDENDL [S10Q] | 5.67
13 | SVIEPVQESMFRSRKIAVEDENDL [S10M] | 4.89
14 | SVIEPVQESNFRSRKIAVEDENDL [S10N] | 5.28
15 | SVIEPVQESRFRSRKIAVEDENDL [S10R] | 5.02
16 | SVIEPVQESHFRSRKIAVEDENDL [S10H] | 5.77
17 | SVIEPVQESCFRSRKIAVEDENDL [S10C] | 5.34
18 | SVIEPVQESFFRSRKIAVEDENDL [S10F] | 4.74
19 | SVIEPVQESSFRSRYIAVEDENDL [K15Y] | 5.29
20 | SVIEPVQESSFRSREIAVEDENDL [K15E] | 5.69
21 | SVIEPVQESSFRSRIIAVEDENDL [K15I] | 5.05
22 | SVIEPVQESSFRSRQIAVEDENDL [K15Q] | 5.71
23 | SVIEPVQESSFRSRFIAVEDENDL [K15F] | 5.03
24 | SVIEPVQESSFRSRHIAVEDENDL [K15H] | 5.36

Row | Variant | protein stability index
25 | SVIEPVQESSFRSRMIAVEDENDL [K15M] | 5.11
26 | SVIEPVQESSFRSRTIAVEDENDL [K15T] | 5.11
27 | SVIEPVQESSFRSRVIAVEDENDL [K15V] | 5.43
28 | SVIEPVQESSFRSRWIAVEDENDL [K15W] | 4.44
29 | SVIEPVQESSFRSRDIAVEDENDL [K15D] | 5.52
30 | SVIEPVQESSFRSRNIAVEDENDL [K15N] | 5.67
31 | SVIEPVQESSFRSRAIAVEDENDL [K15A] | 5.63
32 | SVIEPVQESSFRSRPIAVEDENDL [K15P] | 5.65
33 | SVIEPVQESSFRSRLIAVEDENDL [K15L] | 5.14
34 | SVIEPVQESSFRSRSIAVEDENDL [K15S] | 5.61
35 | SVIEPVQESSFRSRRIAVEDENDL [K15R] | 5.43
36 | SVIEPVQESSFRSRGIAVEDENDL [K15G] | 4.85
37 | SVIEPVQESSFRSRCIAVEDENDL [K15C] | 5.2
38 | SVIEPVQESSFRSEKIAVEDENDL [R14E] | 5.32
39 | SVIEPVQESSFRSHKIAVEDENDL [R14H] | 5.4
40 | SVIEPVQESSFRSYKIAVEDENDL [R14Y] | 4.42
41 | SVIEPVQESSFRSTKIAVEDENDL [R14T] | 5.31
42 | SVIEPVQESSFRSDKIAVEDENDL [R14D] | 5.75
43 | SVIEPVQESSFRSMKIAVEDENDL [R14M] | 5.02
44 | SVIEPVQESSFRSPKIAVEDENDL [R14P] | 5.4
45 | SVIEPVQESSFRSVKIAVEDENDL [R14V] | 5.51
46 | SVIEPVQESSFRSGKIAVEDENDL [R14G] | 5.55
47 | SVIEPVQESSFRSQKIAVEDENDL [R14Q] | 5.67
48 | SVIEPVQESSFRSWKIAVEDENDL [R14W] | 4.13

Row | Variant | protein stability index
49 | SVIEPVQESSFRSCKIAVEDENDL [R14C] | 5.08
50 | SVIEPVQESSFRSIKIAVEDENDL [R14I] | 5.04
51 | SVIEPVQESSFRSAKIAVEDENDL [R14A] | 5.53
52 | SVIEPVQESSFRSFKIAVEDENDL [R14F] | 4.39
53 | SVIEPVQESSFRSSKIAVEDENDL [R14S] | 5.13
54 | SVIEPVQESSFRSKKIAVEDENDL [R14K] | 5.67
55 | SVIEPVQESSFRSLKIAVEDENDL [R14L] | 4.98
56 | SVIEPVQESSFRSNKIAVEDENDL [R14N] | 5.75
57 | SVIEPVQENSFRSRKIAVEDENDL [S9N] | 5.09
58 | SVIEPVQEHSFRSRKIAVEDENDL [S9H] | 4.98
59 | SVIEPVQEPSFRSRKIAVEDENDL [S9P] | 5.66
60 | SVIEPVQEASFRSRKIAVEDENDL [S9A] | 5.35
61 | SVIEPVQELSFRSRKIAVEDENDL [S9L] | 4.48
62 | SVIEPVQEVSFRSRKIAVEDENDL [S9V] | 5.19
63 | SVIEPVQEQSFRSRKIAVEDENDL [S9Q] | 5.35
64 | SVIEPVQEGSFRSRKIAVEDENDL [S9G] | 5.08
65 | SVIEPVQEFSFRSRKIAVEDENDL [S9F] | 4.64
66 | SVIEPVQEESFRSRKIAVEDENDL [S9E] | 5.05
67 | SVIEPVQEYSFRSRKIAVEDENDL [S9Y] | 5.25
68 | SVIEPVQEDSFRSRKIAVEDENDL [S9D] | 5.35
69 | SVIEPVQEWSFRSRKIAVEDENDL [S9W] | 4.86
70 | SVIEPVQEMSFRSRKIAVEDENDL [S9M] | 4.37
71 | SVIEPVQERSFRSRKIAVEDENDL [S9R] | 5.45
72 | SVIEPVQETSFRSRKIAVEDENDL [S9T] | 5.19

Row | Variant | protein stability index
73 | SVIEPVQEKSFRSRKIAVEDENDL [S9K] | 5.44
74 | SVIEPVQEISFRSRKIAVEDENDL [S9I] | 5.31
75 | SVIEPVQECSFRSRKIAVEDENDL [S9C] | 5.09
76 | SVIEPVQESSRRSRKIAVEDENDL [F11R] | 5.67
77 | SVIEPVQESSVRSRKIAVEDENDL [F11V] | 5.16
78 | SVIEPVQESSKRSRKIAVEDENDL [F11K] | 5.4
79 | SVIEPVQESSGRSRKIAVEDENDL [F11G] | 5.28
80 | SVIEPVQESSCRSRKIAVEDENDL [F11C] | 4.9
81 | SVIEPVQESSLRSRKIAVEDENDL [F11L] | 5.46
82 | SVIEPVQESSHRSRKIAVEDENDL [F11H] | 5.37
83 | SVIEPVQESSTRSRKIAVEDENDL [F11T] | 5.86
84 | SVIEPVQESSSRSRKIAVEDENDL [F11S] | 5.26
85 | SVIEPVQESSPRSRKIAVEDENDL [F11P] | 5.08
86 | SVIEPVQESSARSRKIAVEDENDL [F11A] | 4.79
87 | SVIEPVQESSERSRKIAVEDENDL [F11E] | 5.84
88 | SVIEPVQESSMRSRKIAVEDENDL [F11M] | 5.19
89 | SVIEPVQESSQRSRKIAVEDENDL [F11Q] | 4.71
90 | SVIEPVQESSIRSRKIAVEDENDL [F11I] | 5.15
91 | SVIEPVQESSWRSRKIAVEDENDL [F11W] | 5.44
92 | SVIEPVQESSNRSRKIAVEDENDL [F11N] | 5.62
93 | SVIEPVQESSYRSRKIAVEDENDL [F11Y] | 5.26
94 | SVIEPVQESSDRSRKIAVEDENDL [F11D] | 5.92
